The record followed here is publication PMC3573116 (PLoS Pathogens, 2013).

B1: chimeric human-mouse MAb E60 (human IgG1), non-modified (antibody, V domains shown)
VH: EVQVQQSGPELVTPGASVKISCKTSGYTFTEYTVHWVKQSHGKSLEWIGGINPTSGGTNYNQRFRGKATLTVDRSSSTAYMELRSLTSEDSAVYFCAGTLYGYPFDFWGQGTTLTVSS
VL: DILMTQSPSSMSVSLGDSVSITCHASQGISGNIGWLQQKPGKSFKGLIYHGTNLEEGVPSRFSGSGSGADYSLTISSLESEDFADYYCVQYGQFPPTFGGGTKLEIK
notes: also called intact E60; E60 parent; source: HEK-293T, transfected, purified from supernatant (protein A)
B2: chimeric human-mouse MAb E60 N297Q (human IgG1, aglycosylated) (antibody, V domains shown)
VH: EVQVQQSGPELVTPGASVKISCKTSGYTFTEYTVHWVKQSHGKSLEWIGGINPTSGGTNYNQRFRGKATLTVDRSSSTAYMELRSLTSEDSAVYFCAGTLYGYPFDFWGQGTTLTVSS
VL: DILMTQSPSSMSVSLGDSVSITCHASQGISGNIGWLQQKPGKSFKGLIYHGTNLEEGVPSRFSGSGSGADYSLTISSLESEDFADYYCVQYGQFPPTFGGGTKLEIK
notes: also called modified E60; source: HEK-293T, transfected, purified from supernatant (protein A)
B3: chimeric human-mouse MAb E76 (human IgG1), non-modified (antibody, V domains shown)
VH: QVTLKESGPGILQSSQTLSLTCSFSGFSLSTSSMGVSWIRQPSGKGLEWLAHIYWDDDKRYSPSLKSRLTISKDTSRNQVFLKITSVENVDSATYYCARKDGYVPYSLDYWGQGISVTVSS
VL: DIVMTQSHKFMSTSVGDRVSISCKASQAVGTAVAWYQQKPGQSPKLLIYWASTRHTGVPDRFTGSGSGTDFTLTINNVQSEDLADYFCHQYTSYPLTFGTGTKLELK
notes: source: HEK-293T, transfected, purified from supernatant (protein A)
B4: chimeric human-mouse MAb E76 N297Q (human IgG1, aglycosylated) (antibody, V domains shown)
VH: QVTLKESGPGILQSSQTLSLTCSFSGFSLSTSSMGVSWIRQPSGKGLEWLAHIYWDDDKRYSPSLKSRLTISKDTSRNQVFLKITSVENVDSATYYCARKDGYVPYSLDYWGQGISVTVSS
VL: DIVMTQSHKFMSTSVGDRVSISCKASQAVGTAVAWYQQKPGQSPKLLIYWASTRHTGVPDRFTGSGSGTDFTLTINNVQSEDLADYFCHQYTSYPLTFGTGTKLELK
notes: as for B3
B5: chimeric human-mouse MAb E87 (human IgG1), non-modified (antibody, V domains shown)
VH: QVQLQQPGADLVRPGTSVKLSCKASGYTFTIYWMHWVKQRPGQGLEWIGVIDPSAGYTNYSQNFKDKATLTVDTSSSTAYMQLNSLTSEDSAVYYCARHGHYFGTSYWYFDVWGTGTTVTVSS
VL: DIVMSQSPSSLAVSVGEKVTMRCKSSQSLLYSRNQKNYLAWYQQKPGQSPKVLIYWASTRESGVPDRFTGSGSGTDFTLTISSVKTEDLSVYYCQQYYSYPFTFGSGTKLEIK
notes: as for B3
B6: chimeric human-mouse MAb E87 N297Q (human IgG1, aglycosylated) (antibody, V domains shown)
VH: QVQLQQPGADLVRPGTSVKLSCKASGYTFTIYWMHWVKQRPGQGLEWIGVIDPSAGYTNYSQNFKDKATLTVDTSSSTAYMQLNSLTSEDSAVYYCARHGHYFGTSYWYFDVWGTGTTVTVSS
VL: DIVMSQSPSSLAVSVGEKVTMRCKSSQSLLYSRNQKNYLAWYQQKPGQSPKVLIYWASTRESGVPDRFTGSGSGTDFTLTISSVKTEDLSVYYCQQYYSYPFTFGSGTKLEIK
notes: as for B3
B7: chimeric human-mouse MAb E18 (human IgG1), non-modified (antibody, V domains shown)
VH: QIQLVQSGPELKKPGETVKISCKASGYTFTDYSMHWVKQAPGKGLKWMGWFNTETGEPTYADDFKGRFAFSLETSASTAFLQINNLKNEDTATYFCARGGDFYSVDYWGQGTSVTVSS
VL: DIQMTQTTSSLSASLGDRVTISCRASQDITNYLNWYQQKPDGTVKLLIYYTSGLHSGVPSRFSGSGSGTDYSLTISNLEQEDIATYFCQQGNTLPPTFGGGTKLEIK
notes: as for B3
B8: chimeric human-mouse MAb E18 N297Q (human IgG1, aglycosylated) (antibody, V domains shown)
VH: QIQLVQSGPELKKPGETVKISCKASGYTFTDYSMHWVKQAPGKGLKWMGWFNTETGEPTYADDFKGRFAFSLETSASTAFLQINNLKNEDTATYFCARGGDFYSVDYWGQGTSVTVSS
VL: DIQMTQTTSSLSASLGDRVTISCRASQDITNYLNWYQQKPDGTVKLLIYYTSGLHSGVPSRFSGSGSGTDYSLTISNLEQEDIATYFCQQGNTLPPTFGGGTKLEIK
notes: as for B3
B9: chimeric human-mouse MAb E44 (human IgG1), non-modified (antibody, V domains shown)
VH: QVQLKESGPGLVAPSQSLSITCTVSGFSLTSYGVDWVRQSPGKGLEWLGVIWGAGSTNYNSAFRSRLSISKDNSKSQVFLKMNSLQTDDTAMYYCASGTGTGAMDYWGQGTSVTVSS
VL: DIVLTQSPATLSVTPGDSVSLSCRASQSISNNLHWYQQKSHESPRLLIFYSSQSISGIPSRFSGSGSGTDFTLRINSVETEDFGMYFCQQSNNWPHTFGRGTKLDMK
notes: as for B3
B10: chimeric human-mouse MAb E44 N297Q (human IgG1, aglycosylated) (antibody, V domains shown)
VH: QVQLKESGPGLVAPSQSLSITCTVSGFSLTSYGVDWVRQSPGKGLEWLGVIWGAGSTNYNSAFRSRLSISKDNSKSQVFLKMNSLQTDDTAMYYCASGTGTGAMDYWGQGTSVTVSS
VL: DIVLTQSPATLSVTPGDSVSLSCRASQSISNNLHWYQQKSHESPRLLIFYSSQSISGIPSRFSGSGSGTDFTLRINSVETEDFGMYFCQQSNNWPHTFGRGTKLDMK
notes: as for B3
B11: chimeric human-mouse MAb E28 (human IgG1), non-modified (antibody, V domains shown)
VH: QIQLVQSGPELKKPGETVKISCKASGYTFTDYSMHWVKQTPGKGLKWLGWINPKTGEPTYVDDFKGRFAFYLETSSSTAYLQITNLKNEDTATYFCARGYDYYSVDYWGQGTLVTVSS
VL: DIQMTQTTSSLSASLGARVTISCRANQDINNYLHWYQQKPDGTIKLLVYYTSGLHSGVPSRFIGSGSGTDYSLTITNLEQEDIATYFCQQGNTLPLTFGAGTKLELK
notes: as for B3
B12: chimeric human-mouse MAb E28 N297Q (human IgG1, aglycosylated) (antibody, V domains shown)
VH: QIQLVQSGPELKKPGETVKISCKASGYTFTDYSMHWVKQTPGKGLKWLGWINPKTGEPTYVDDFKGRFAFYLETSSSTAYLQITNLKNEDTATYFCARGYDYYSVDYWGQGTLVTVSS
VL: DIQMTQTTSSLSASLGARVTISCRANQDINNYLHWYQQKPDGTIKLLVYYTSGLHSGVPSRFIGSGSGTDYSLTITNLEQEDIATYFCQQGNTLPLTFGAGTKLELK
notes: as for B3
B13: human MAb 82.11 LALA (IgG1) (antibody, V domains shown)
VH: QAHLVESGGGVVQPGRSLRLSCAASAFNFSTNAMHWVRQAPGKGLEWVAVISYDGSHKYYADSVKGRFTISRDNSKNTLYLQMNSLRAADTAVYYCATVGVLTWPVNAEYFHHWGQGSLVSVSS
VL: QSVLTQPPSVSGAPGQRVTISCTGSSSNIGAGYDVHWYQQLPGTAPKLLICGNNNRPSGVPDRFSGSKSGTSASLAITGLQAEDEADYYCQSYDSSLTGVVFGGGTKLTVL
notes: source: HEK-293T, purified (protein A, size-exclusion chromatography)
B14: human MAb 87.1 LALA (IgG1) (antibody, V domains shown)
VH: EVQLVESGGGLVQPGRSLRLSCAASGFTFDDYAMFWVRQAPGKGLEWISGISWNSATIGYADSVKGRFTISRDNAKKSLDLQMNSLRPDDTALYYCAKGGPRGLQLLSSWVDYWGQGTLVTVSS
VL: DIQMTQSPSSLSASVGDRVTITCRASQDIRRYLNWYQQRPGRVPQLLIYTTSTLQSGVPSRFSGSGSVTDFTLTISSLQPEDFGTYYCQQSYSPPHTFGQGTKLEIK
notes: as for B13

For the assay, the target named is T1, DENV2 D2S10 envelope (E) protein on virions (dengue virus 2 (DENV2), strain D2S10).
T1 construct: also called DENV2 virions
The experiment in a line: ELISA. Conditions: one partner purified. For orientation: In an ELISA, binding on a coated surface is turned into a signal by an enzyme label.
Usually Kd stands for the equilibrium constant for the complex coming apart. Low values mean tighter binding, high ones weaker binding. Turning to B1, the Kd came to 1.14 nM.

Turning to B2, binding was characterised by a dissociation constant (Kd) of 1.18 nM.

Consider B3, for which the dissociation constant (Kd) worked out at 0.84 nM.

Take B4: the Kd came to 1.1 nM.

Regarding B5, the Kd came out at 1.07 nM.

B6 gave a Kd of 1.43 nM.

Take B7: the Kd amounted to 2.74 nM.

As to B8, the Kd is 3.46 nM.

The molecule B9 returned an equilibrium dissociation constant (Kd) of 0.14 nM.

Turning to B10, the dissociation constant Kd was found to be 0.84 nM.

In turn, B11 gave a Kd of 2.7 nM.

As to B12, binding was put at a Kd of 2.88 nM.

Turning to B13, the dissociation constant Kd was determined as 0.91 nM.

B14 showed a Kd of 0.34 nM.
